# Laboratory results: US20210301005A1
# Key:
# [1] = biological target: human TGFβ1, mature receptor-binding domain (human) (UniProt P01137)
# [2] = biological target: human TGFβ2, mature receptor-binding domain (human)
# [3] = biological target: human TGFβ3, mature dimeric form (human) (UniProt P10600)
# [4] = biological target: human TGFβ1, mature receptor-binding domain (human) (UniProt P01137); remark: listed apart in the source
# [5] = biological target: human TGFβ2, mature receptor-binding domain (human); remark: listed apart in the source
# [6] = biological target: human TGFβ3, mature dimeric form (human) (UniProt P10600); remark: listed apart in the source
# Chain of Fc-LAP1 (P01137 30-278 limits assumed): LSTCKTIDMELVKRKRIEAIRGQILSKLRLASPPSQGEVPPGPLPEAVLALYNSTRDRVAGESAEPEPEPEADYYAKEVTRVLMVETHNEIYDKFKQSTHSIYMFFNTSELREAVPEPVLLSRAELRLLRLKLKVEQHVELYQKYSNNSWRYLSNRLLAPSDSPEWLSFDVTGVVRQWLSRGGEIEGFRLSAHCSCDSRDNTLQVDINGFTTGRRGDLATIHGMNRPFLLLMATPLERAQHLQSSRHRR
# Chain of human TGFβ1, mature receptor-binding domain (human) (P01137 279-390 limits assumed): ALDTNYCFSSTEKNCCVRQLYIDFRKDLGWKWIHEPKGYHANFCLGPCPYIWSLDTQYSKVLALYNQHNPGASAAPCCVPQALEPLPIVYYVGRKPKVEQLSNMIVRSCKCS
# Chain of human TGFβ3, mature dimeric form (human) (P10600 301-412): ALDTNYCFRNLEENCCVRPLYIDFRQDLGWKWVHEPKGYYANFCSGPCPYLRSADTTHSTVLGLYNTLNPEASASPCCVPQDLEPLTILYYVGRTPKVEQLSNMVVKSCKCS
# Chain of human TGFβ2, mature receptor-binding domain (human) (P09858 303-414 limits assumed): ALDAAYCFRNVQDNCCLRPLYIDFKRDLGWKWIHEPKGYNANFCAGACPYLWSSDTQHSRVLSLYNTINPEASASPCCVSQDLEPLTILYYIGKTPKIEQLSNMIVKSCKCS
substance,measurement,setting,value
Fc-LAP1 (from UniProt P01137 30-278) (Fc fusion),IC50,[1],96 nM
same,IC50,[2],64 nM
same,IC50,[3],43 nM
same,IC50 (read off the curve),[4],0.1 nM
same,IC50 (read off the curve),[5],0.07 nM
same,IC50 (read off the curve),[6],0.04 nM
